From patent publication US20180224449A1
Ends that are not written are not given here.

Target: Opr86 outer membrane protein on P. stutzeri cells (P. stutzeri)
Test: fluorometry at 525 nm of 1x10^9 P. stutzeri cells labeled with peptide-QD525 conjugate

Row | Binder | Fluorescence (RFU)
1 | MHNLNLL (conjugated to a quantum dot (QD525)) [OPP2 peptide-quantum dot conjugate] | 1850
2 | IITMKRR (conjugated to a quantum dot (QD525)) [OPP5 peptide-quantum dot conjugate] | 4410
3 | RKKSRIR (conjugated to a quantum dot (QD525)) [OPP6 peptide-quantum dot conjugate] | 4130
4 | LRPLMNR (conjugated to a quantum dot (QD525)) [OPP4 peptide-quantum dot conjugate] | 1380
5 | LPSTIHR (conjugated to a quantum dot (QD525)) [OPP3 peptide-quantum dot conjugate] | 2250
6 | PRIRKSH (also: conjugated to quantum dot) [OPP1 peptide-quantum dot conjugate] | 12300

Target: OprF outer membrane protein on P. stutzeri cells (P. stutzeri)
Test: as above

Row | Binder | Fluorescence (RFU)
7 | NMTNPPP (conjugated to a quantum dot (QD525)) [OBP6 peptide-quantum dot conjugate] | 2080
8 | QITLRST (conjugated to a quantum dot (QD525)) [OBP7 peptide-quantum dot conjugate] | 2620
9 | RRSNSQL (conjugated to a quantum dot (QD525)) [OBP4 peptide-quantum dot conjugate] | 4520
10 | QMLLRLP (conjugated to a quantum dot (QD525)) [OBP9 peptide-quantum dot conjugate] | 3340

Target: Opr86 outer membrane protein on P. stutzeri cells (P. stutzeri)
Test: fluorometry of cells recovered from spiked 1 L Jet A fuel and labeled with 1.5 uM peptide-QD545, at the LOD of 5 x 10^5 CFU

Row | Binder | Fluorescence (RFU)
11 | PRIRKSH (also: conjugated to quantum dot) [OPP1 peptide-quantum dot conjugate] | 820

Target: Opr86 outer membrane protein on A. venetianus cells (A. venetianus)
Test: as above

Row | Binder | Fluorescence (RFU)
12 | PRIRKSH (also: conjugated to quantum dot) [OPP1 peptide-quantum dot conjugate] | 773
